# Results: paper PMC5374532, “Rational mutagenesis by engineering disulphide bonds improves Kluyveromyces lactis beta-galactosidase for high-temperature industrial applications” (Scientific Reports, 2017)
# Biological target: the molecule itself
# Experiment: AUC; sedimentation velocity, 0.2 mg/mL enzyme, 50 mM Tris-HCl, 150 mM NaCl, pH 7.4, 48 k rpm, c(s) distribution (SEDFIT); self-association, shares of monomer, dimer, trimer and tetramer
protein,measurement,value
"Kluyveromyces lactis β-galactosidase (enzyme, UniProt P00723 2-1025, looked up, β-galactosidase of Kluyveromyces lactis, LAC4 gene (Gene ID 2897170), amplified from plasmid pLX8 and cloned in YEpFLAG; Monomer 118 kDa as printed; also called Kl-β-Gal; native Kl-β-Gal; not shown: FLAG, N-terminal, kept) SCLIPENLRNPKKVHENRLPTRAYYYDQDIFESLNGPWAFALFDAPLDAPDAKNLDWETAKKWSTISVPSHWELQEDWKYGKPIYTNVQYPIPIDIPNPPTVNPTGVYARTFELDSKSIESFEHRLRFEGVDNCYELYVNGQYVGFNKGSRNGAEFDIQKYVSEGENLVVVKVFKWSDSTYIEDQDQWWLSGIYRDVSLLKLPKKAHIEDVRVTTTFVDSQYQDAELSVKVDVQGSSYDHINFTLYEPEDGSKVYDASSLLNEENGNTTFSTKEFISFSTKKNEETAFKINVKAPEHWTAENPTLYKYQLDLIGSDGSVIQSIKHHVGFRQVELKDGNITVNGKDILFRGVNRHDHHPRFGRAVPLDFVVRDLILMKKFNINAVRNSHYPNHPKVYDLFDKLGFWVIDEADLETHGVQEPFNRHTNLEAEYPDTKNKLYDVNAHYLSDNPEYEVAYLDRASQLVLRDVNHPSIIIWSLGNEACYGRNHKAMYKLIKQLDPTRLVHYEGDLNALSADIFSFMYPTFEIMERWRKNHTDENGKFEKPLILCEYGHAMGNGPGSLKEYQELFYKEKFYQGGFIWEWANHGIEFEDVSTADGKLHKAYAYGGDFKEEVHDGVFIMDGLCNSEHNPTPGLVEYKKVIEPVHIKIAHGSVTITNKHDFITTDHLLFIDKDTGKTIDVPSLKPEESVTIPSDTTYVVAVLKDDAGVLKAGHEIAWGQAELPLKVPDFVTETAEKAAKINDGKRYVSVESSGLHFILDKLLGKIESLKVKGKEISSKFEGSSITFWRPPTNNDEPRDFKNWKKYNIDLMKQNIHGVSVEKGSNGSLAVVTVNSRISPVVFYYGFETVQKYTIFANKINLNTSMKLTGEYQPPDFPRVGYEFWLGDSYESFEWLGRGPGESYPDKKESQRFGLYDSKDVEEFVYDYPQENGNHTDTHFLNIKFEGAGKLSIFQKEKPFNFKISDEYGVDEAAHACDVKRYGRHYLRLDHAIHGVGSEACGPAVLDQYRLKAQDFNFEFDLAFE",stoichiometry N,2
